Laboratory results reported in publication PMC7674511, “The Chaperone BAG6 Regulates Cellular Homeostasis between Autophagy and Apoptosis by Holding LC3B” (iScience, 2020).
No end group written: not given here.

Biological target: LC3B-I (UniProt Q9GZQ8 1-120)
Assay: fluorescence polarisation; fluorescence anisotropy; peptide at 1 μM, LC3B-I or Pro-LC3B added from 0 to 50 μM; Kd by nonlinear curve fitting; three independent experiments
Settings: both partners purified

- Kd: 22.2 µM
B1: BAG6 LIR1 peptide (residues 124-143) (peptide)
peptide: VHDRNANSYVMVGTFNLPSD
modifications: also: FITC label, position not given here
notes: BAG6, 20-aa peptide encompassing the LIR1 motif (132-135 YVMV), residues 124-143; it has the same name there; also called wild-type BAG6 LIR-1 peptide; source: synthetic peptide
